The text below walks through data of patent EP1137786B1 (UNIVERSITY OF MARYLAND BIOTECHNOLOGY INSTITUTE, dated 2007).

The assay concerns the target full-length single chain (FLSC) gp120-CD4 chimeric polypeptide (HIV-1 BaL; human). The experiment in a line: flow cytometry on L1.2/X4 cells. (In general: In flow cytometry, cells or beads pass a laser one at a time.)

B1: CXCR4 (receptor)
chain: MEGISIYTSDNYTEEMGSGDYDSMKEPCFREENANFNKIFLPTIYSIIFLTGIVGNGLVILVMGYQKKLRSMTDKYRLHLSVADLLFVITLPFWAVDAVANWYFGNFLCKAVHVIYTVNLYSSVLILAFISLDRYLAIVHATNSQRPRKLLAEKVVYVGVWIPALLLTIPDFIFANVSEADDRYICDRFYPNDLWVVVFQFQHIMVGLILPGIVILSCYCIIISKLSHSKGHQKRKALKTTVILILAFFACWLPYYIGISIDSFILLEIIKQGCEFENTVHKWISITEALAFFHCCLNPILYAFLGAKFKTSAQHALTSVSRGSSLKILSKGKRGGHSSVSTESESSSFHSS
notes: whole, on cells; also called X4; L1.2/X4 cells
For the molecule B1, the binding result is recorded as “no binding”.
